# Experimental data: publication PMC10097598, “Cryo-EM structure of the transposon-associated TnpB enzyme”
# T1: TnpB (ISDra2) (Deinococcus radiodurans (ISDra2), UniProt Q7DF80 1-408)
# T1 sequence: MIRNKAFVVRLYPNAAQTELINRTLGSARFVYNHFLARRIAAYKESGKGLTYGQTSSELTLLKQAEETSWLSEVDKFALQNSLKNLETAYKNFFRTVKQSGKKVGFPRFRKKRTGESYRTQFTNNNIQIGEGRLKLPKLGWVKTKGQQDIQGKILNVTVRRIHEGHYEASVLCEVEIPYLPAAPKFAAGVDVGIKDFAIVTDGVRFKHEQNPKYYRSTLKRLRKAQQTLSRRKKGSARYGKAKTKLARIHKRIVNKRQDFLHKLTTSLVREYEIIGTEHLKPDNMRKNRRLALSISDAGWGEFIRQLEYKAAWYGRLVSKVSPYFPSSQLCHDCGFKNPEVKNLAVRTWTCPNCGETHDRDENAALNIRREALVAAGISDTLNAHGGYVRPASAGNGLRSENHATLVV
# Target: T1, TnpB (ISDra2)
# Experiment: co-purification (urea-PAGE, northern blot); bound RNA is 5'-processed, 100-160 nt; Ternary complex: TnpB–ωRNA + target DNA, room temperature 30 min; SEC in 20 mM Tris-HCl pH 8.0, 150 mM NaCl, 2 mM MgCl2, 10 uM ZnCl2, 1 mM DTT. Copurification:
# Settings: protein: recombinant; tags: N-terminal MBP, removed with HRV3C; pseudoknot, stems 1-3, triple helix
binder,measurement,value
ωRNA full length (as co-expressed) (structured_RNA) RNA: GAUUCAAGAAUCCCGAAGUGAAGAAUCUUGCCGUCCGUACAUGGACUUGCCCGAACUGUGGGGAAACCCAUGACCGAGACGAGAACGCUGCGCUGAACAUUCGGCGUGAAGCGUUGGUGGCUGCGGGAAUCUCAGACACCUUAAACGCUCAUGGAGGCUAUGUCAGACCUGCUUCGGCGGGCAAUGGUCUGCGAAGUGAGAAUCACGCGACUUUAGUCGUGUGAGGUUCAAGAGUCCCUUGGCGCCC,binding result,binds
